Earlier results on one substance are cited in article PMC3817581.

Some targets named below: Asp27 (UniProt position 156, PLCGSDNKTYG); Asp7 (UniProt position 136, AAVSVDCSEYP); Glu10 (UniProt position 139, SVDCSEYPKPA); Glu19 (UniProt position 148, PACTLEYRPLC); Glu43 (UniProt position 172, CNAVVESNGTL).
Common to all, as to conditions: not stated in this article

Regarding “Turkey ovomucoid third domain (OMTKY3) (Meleagris gallopavo)”, the pKa in the data set with Asp27 was 2.2; in the data set with Asp7 it was 2.5; with Glu10, 4.1; with Glu19, 3.2; in the data set with Glu43, 4.8.
